Legend:
[1] = molecular target: SARS-CoV-2 spike receptor binding domain with C-terminal 3xFlag tag (RBD-3xFlag) (SARS-CoV-2) (UniProt P0DTC2)
[2] = molecular target: SARS-CoV-2 spike receptor binding domain with C-terminal 3xFlag tag (RBD-3xFlag) (SARS-CoV-2) (UniProt P0DTC2); remark: listed apart in the source

VHH72 showed a heated/non heated ratio of ELISA reading [1] of 0.33 and an ELISA A450 [2] of 0.287 A450.

Reference: US20230303666A1
